Assay results published in PMC8951541, “Sunflower WRINKLED1 Plays a Key Role in Transcriptional Regulation of Oil Biosynthesis”.

B1: proBCCP2 AW-box probe (dsDNA)
DNA 1: TACTTCCTCGGTTTCATCGTCCAC
DNA 2: GTGGACGATGAAACCGAGGAAGTA
B2: proBCCP2 AW-box cold probe (dsDNA)
DNA 1: TACTTCCTCGGTTTCATCGTCCAC
DNA 2: GTGGACGATGAAACCGAGGAAGTA

Columns and labels:
[1] = target: T1, His-HaWRI1(52-234), AP2 domain (Helianthus annuus, UniProt A0A251SM13 52-234); test: EMSA; poly(dI-dC) 0.05 ug/uL; 280 ng protein; 2 fmol/uL probe; EMSA: 15 mM HEPES-KOH pH 7.5, 7.5 mM KCl, 0.5 mM EDTA, 5% glycerol, 2 mM DTT, 1 ug/uL BSA, 0.05 ug/uL poly(dI-dC), 20 uL, on ice 30 min; 5% native PAGE; conditions: protein: recombinant; tags: 6xHis (pET41a-6xHis vector); label: 5' biotin
T1 sequence (A0A251SM13 entry or part of it): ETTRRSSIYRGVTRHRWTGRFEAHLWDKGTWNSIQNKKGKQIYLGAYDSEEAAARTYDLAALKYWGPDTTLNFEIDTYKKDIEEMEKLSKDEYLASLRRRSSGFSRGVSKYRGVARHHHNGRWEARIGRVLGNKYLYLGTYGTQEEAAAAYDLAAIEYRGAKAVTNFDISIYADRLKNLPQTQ

[2] = target: T1, His-HaWRI1(52-234), AP2 domain; test: competition; 10x to 60x unlabeled probe against biotin-labeled N1 (EMSA); EMSA: 15 mM HEPES-KOH pH 7.5, 7.5 mM KCl, 0.5 mM EDTA, 5% glycerol, 2 mM DTT, 1 ug/uL BSA, 0.05 ug/uL poly(dI-dC), 20 uL, on ice 30 min; 5% native PAGE; conditions: protein: recombinant; tags: 6xHis (pET41a-6xHis vector); label: none

Row | Binder | binding result [1] | binding result [2]
1 | B1 | binds | –
2 | B2 | – | binds
